# Measurements as given in patent publication US5965725A, “Polypeptides, and preparation and DNA encoding thereof” (Seikagaku Kogyo Kabushiki Kaisha, priority 1994, dated 1999).
# Ends that are not written are not given here.
# B1: polypeptide obtained by Example 1: Purified S5 fraction polypeptide from small granules of horseshoe crab hemocytes; 79 amino acids, about 8,200 by SDS-PAGE (protein)
# chain: NPLIPAIYIGATVGPSVWAYLVALVGAAAVTAANIRRASSDNHSCAGNRGWCRSKCFRHEYVDTYYSAVCGRYFCCRSR
# Tests used:
# Format in all cases: cell-based
# [1] = tested on: Staphylococcus aureus; assay: Antimicrobial activity, growth inhibition at a single concentration (colony count); settings: 50 μl of 40 μg/ml polypeptide added to 450 μl of 5,000 CFU/ml suspension in 10 mM phosphate buffer pH 7.0; 37° C. 1 hr
# Method: (§1) In addition, Staphylococcsii aureus was suspended in 10 mM phosphate buffer, pH 7.0, at a concentration of 5,000 CFU/ml and 450 μl of the suspension was mixed with 50 μl each of polypeptide fraction T3 (polypeptide of [Formula 4]), T6 (polypeptide of [Formula 5]) (SEQ ID NO:4), and a polypeptide obtained by Example 1 each having a concentration of 40 μg/ml, and as a control 10 mM phosphate buffer, pH 7.0. The mixtures were incubated at 37° C. for 1 hr. Then, 100 μl of incubated mixture was inoculated in an agar medium, cultured at 37° C. for 12 hrs. and the number of colonies were counted with naked eye.
# [2] = tested on: Escherichia coli; assay: as above; settings: 50 μl of 40 μg/ml polypeptide added to 450 μl of 10,000 CFU/ml suspension in 10 mM phosphate buffer pH 7.0; 37° C. 1 hr
# Method: as §1, with “Escherichia coli” for “In addition, Staphylococcsii aureus”, “10,000” for “5,000”, “4]) (SEQ ID NO:3),” for “4]),”
# [3] = tested on: Staphylococcus aureus; assay: Determination of antimicrobial activity (colony count after 1 hr incubation in hypotonic buffer); settings: 10 mM phosphate buffer pH 7.0 (hypotonic), 37° C. 1 hr, then agar culture 12 hrs
# Method: (§2) Various microorganisms shown in Table 3 were suspended in 10 mM phosphate buffer, pH 7.0 (hypotonic solution). In 900 μl of 5,000-10,000 CFU/ml suspension, 100 μl of 2-fold serial diluted polypeptide solution at a concentration of 20 μg/ml obtained by Example 1 was added and incubated at 37° C. for 1 hr. Then, 100 μl of incubated mixture was inoculated in an agar medium, cultured at 37° C. for 12 hrs. and the number of colonies was counted with naked eye (see Infections and Immunity, 42, 10-14 (1983)). CFU means colony forming unit.
# [4] = tested on: Salmonella typhimurium LT2(S); assay: as above; settings: 10 mM phosphate buffer pH 7.0 (hypotonic), 37° C. 1 hr, then agar culture 12 hrs
# Method: as §2
# [5] = tested on: Escherichia coli; assay: as above; settings: 10 mM phosphate buffer pH 7.0 (hypotonic), 37° C. 1 hr, then agar culture 12 hrs
# Method: as §2
# [6] = tested on: Candida albicans; assay: as above; settings: 10 mM phosphate buffer pH 7.0 (hypotonic), 37° C. 1 hr, then agar culture 12 hrs
# Method: as §2
# [7] = tested on: S. minnesota Re; assay: as above; settings: 10 mM phosphate buffer pH 7.0 (hypotonic), 37° C. 1 hr, then agar culture 12 hrs
# Method: as §2
# [8] = tested on: Klebsiella pneumoniae; assay: as above; settings: 10 mM phosphate buffer pH 7.0 (hypotonic), 37° C. 1 hr, then agar culture 12 hrs
# Method: as §2
molecule,measurement,setting,value
"T3: Trypsin degradation fraction of the Example 1 polypeptide, eluted at 27 min; 42 residues, C-terminal defensin-like part (ASSDNHSCAGNRGWCRSKCFRHEYVDTYYSAVCGRYFCCRSR; not fully specified (bridges); cysteine pairing not given here)",inhibited the growth of Staphylococcus aureus at a rate of,[1],about 30%
same,inhibited the growth of Escherichia coli at a rate of,[2],about 90%
B1,inhibited the growth of Staphylococcus aureus at a rate of,[1],almost completely
same,inhibited the growth of Escherichia coli at a rate of,[2],≥ 95%
same,IC50 (μg/ml) (hypotension),[3],< 2.5 µg/mL
same,IC50 (μg/ml) (hypotension),[4],20 µg/mL
same,IC50 in hypotonic buffer,[5],2.5 µg/mL
same,IC50 (μg/ml) (hypotension),[6],10 to 20 µg/mL
same,IC50 (μg/ml) (hypotension),[7],< 0.6 µg/mL
same,IC50 (μg/ml) (hypotension),[8],< 1.3 µg/mL
